Reference: PMC8360603

Molecular target: DDB1/DCAF1 C-terminal domain complex (UniProt Q16531)
UniProt Q16531, sequence (Q16531 whole entry, chain 1 of 2, the tested form may be a part): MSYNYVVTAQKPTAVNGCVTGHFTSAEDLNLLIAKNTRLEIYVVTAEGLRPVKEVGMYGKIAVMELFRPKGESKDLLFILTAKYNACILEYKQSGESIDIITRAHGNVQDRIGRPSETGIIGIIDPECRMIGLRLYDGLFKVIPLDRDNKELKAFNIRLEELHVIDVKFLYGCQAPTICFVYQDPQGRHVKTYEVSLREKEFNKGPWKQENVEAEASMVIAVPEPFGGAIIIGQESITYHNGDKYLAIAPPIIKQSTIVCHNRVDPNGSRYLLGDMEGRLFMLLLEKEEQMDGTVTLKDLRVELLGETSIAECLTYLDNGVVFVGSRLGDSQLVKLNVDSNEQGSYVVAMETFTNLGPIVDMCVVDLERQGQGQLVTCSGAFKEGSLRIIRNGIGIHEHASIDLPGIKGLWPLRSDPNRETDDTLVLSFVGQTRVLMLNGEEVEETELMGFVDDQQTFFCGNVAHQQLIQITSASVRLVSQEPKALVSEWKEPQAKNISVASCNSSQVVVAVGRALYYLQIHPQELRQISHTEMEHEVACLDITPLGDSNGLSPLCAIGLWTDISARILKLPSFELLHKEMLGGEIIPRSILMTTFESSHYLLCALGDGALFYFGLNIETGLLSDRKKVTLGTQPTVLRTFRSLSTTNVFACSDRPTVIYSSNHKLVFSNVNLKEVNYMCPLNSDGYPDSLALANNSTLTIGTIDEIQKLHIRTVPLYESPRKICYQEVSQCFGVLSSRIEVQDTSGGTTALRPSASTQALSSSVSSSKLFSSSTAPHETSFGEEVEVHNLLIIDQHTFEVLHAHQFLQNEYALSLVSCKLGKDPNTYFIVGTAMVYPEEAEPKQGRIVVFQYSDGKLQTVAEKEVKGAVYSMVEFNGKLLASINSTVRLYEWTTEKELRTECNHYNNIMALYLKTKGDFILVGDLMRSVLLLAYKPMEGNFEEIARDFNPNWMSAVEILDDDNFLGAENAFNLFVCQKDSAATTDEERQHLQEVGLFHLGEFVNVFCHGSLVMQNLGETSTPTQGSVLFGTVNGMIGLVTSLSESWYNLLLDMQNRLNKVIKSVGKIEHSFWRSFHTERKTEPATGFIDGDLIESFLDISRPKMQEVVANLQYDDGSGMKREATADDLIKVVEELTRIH
UniProt Q16531, sequence (Q9Y4B6 1046-1396, chain 2 of 2, further chain): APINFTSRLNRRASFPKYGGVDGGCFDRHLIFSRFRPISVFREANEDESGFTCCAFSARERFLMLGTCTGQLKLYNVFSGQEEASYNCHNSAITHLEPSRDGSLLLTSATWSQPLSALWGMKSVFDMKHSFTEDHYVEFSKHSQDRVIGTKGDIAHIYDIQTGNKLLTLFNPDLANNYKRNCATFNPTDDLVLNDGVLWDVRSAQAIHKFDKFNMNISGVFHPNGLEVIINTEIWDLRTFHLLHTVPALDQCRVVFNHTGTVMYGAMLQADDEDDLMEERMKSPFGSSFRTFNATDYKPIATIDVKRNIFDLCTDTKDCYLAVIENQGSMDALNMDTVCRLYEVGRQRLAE

**Q.** T4L-SAMHD1-CtD (domain or fragment) was tested. Which in vitro ubiquitylation of T4L-SAMHD1-CtD by CRL4^DCAF1-CtD (UBA1, UBCH5C, ubiquitin, ATP) with HisSUMO-T4L-Vprmus (1-92), 0-15 min, SDS-PAGE; loss of the unmodified band did it give?
**A.** > 90%
